Data set [1] relates to T1, hirudin mutein M 1 (I29A L30A).
T1 sequence: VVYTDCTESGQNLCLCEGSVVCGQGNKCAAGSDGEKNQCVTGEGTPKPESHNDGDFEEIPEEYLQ

The test system of data set [2] is T2, hirudin mutein M 2 (I29R L30H).
T2 sequence: T1 sequence with A29R, A30H

We go through one substance from patent US20060140929.

Changes are numbered by the printed parent chain.

On to thrombin, for which the figures for the Relative activity (ED50 variant/ED50 WT hirudin), chromogenic thrombin cleavage assay in data set [1] and in data set [2] were 1.4 and 1.2, respectively.
